This is an account of results in patent publication US20150050278A1 (US Dept. of Health and Human Services, published 2015).

For test [1], the target named is T1, human neonatal Fc receptor (FcRn), soluble (human, UniProt P55899 24-297; P61769 21-119, limits assumed).
T1 construct: also called human FcRn; human single-chain soluble FcRn
Kind of test: SPR (BIAcore), human FcRn immobilised, pH 6.0; concentrations not given. (Surface plasmon resonance follows binding to a sensor surface in real time, without labels.)

For test [2], the target named is T1, human neonatal Fc receptor (FcRn), …. Kind of test: SPR (BIAcore), human FcRn immobilised, pH 6.0; SPR (BIAcore), FcRn on the chip, pH 6.0.
Procedure: The interaction of monomeric Fc with immobilized FcRn was monitored by SPR detection using a BIAcore X100 instrument (GE Healthcare). Purified human FcRn was diluted in 10 mM Na-acetate buffer, pH 5.0, and immobilized on a CM5 biosensor chip using amine coupling kit. The running buffer was PBS with 0.005% Tween 20 for testing binding at pH 7.4, or PBS pH 6.0 with 0.005% Tween 20 for binding at pH 6.0. […] After 10 min of dissociation, the chip was regenerated with pH 8.0 buffer (100 mM Tris, pH 8.0, 50 mM NaCl). Another test with a protein concentration of 500 nM was repeated to monitor the regeneration efficiency.
It was determined whether mCH3 could bind FcRn in a pH-dependent manner. Surface plasmon resonance (SPR) binding was performed using a BIAcore instrument with human FcRn immobilized on the chip, as described previously. The measurements were carried out under pH 6.0 or pH 7.4, and the chips were regenerated after binding by injection of a pH 8.0 buffer.
Test [3] shares this target. As to the kind of experiment: SPR, human FcRn immobilised, pH 6.0; pH 6.0.
Test [4] has the same target. Kind of test: SPR (BIAcore X100), human FcRn immobilised on CM5 chip, pH 6.0; SPR (BIAcore X100), FcRn on CM5 chip, pH 6.0.
Procedure: The interaction of monomeric Fc with immobilized FcRn was monitored by SPR detection using a BIAcore X100 instrument (GE Healthcare). Purified human FcRn was diluted in 10 mM Na-acetate buffer, pH 5.0, and immobilized on a CM5 biosensor chip using amine coupling kit. The running buffer was PBS with 0.005% Tween 20 for testing binding at pH 7.4, or PBS pH 6.0 with 0.005% Tween 20 for binding at pH 6.0. […] After 10 min of dissociation, the chip was regenerated with pH 8.0 buffer (100 mM Tris, pH 8.0, 50 mM NaCl).
Human FcRn was immobilized on a CM5 bio sensor chip followed by analysis of the interaction using BIAcore X100. The binding was performed under pH 6.0 and pH 7.4, respectively, and the chip was regenerated with pH 8.0 buffer.
Test [5] has the same target. As to the kind of experiment: ELISA on coated human FcRn at pH 6.0, OD405. On the technique in general: ELISA stands for enzyme-linked immunosorbent assay.
Procedure: Antigens were coating on ELISA plate wells at 50 ng per well in PBS overnight at 4° C., blocked with protein-free blocking buffer for 1 h at 37° C. Threefold serially diluted protein was added and incubated at 37° C. for 2 h. The plates were washed with PBST, and HRP-conjugated anti-Fc antibody in PBS was incubated with wells for 1 h at 37° C. After extensive washes with PBST, the binding was detected with the addition of ABTS substrate, and signals were read at 405 nm. For FcRn binding test at pH 6.0, all proteins were prepared in PBS with pH adjusted to 6.0 by HCl, and PBST with pH 6.0 was used for washing the wells.

Where a chain is given by its changes, count along the chain named.

In general, Kd refers to the constant that tells how readily two partners part at equilibrium. Low readings indicate a tighter complex, high ones a looser complex. As a reminder, the EC50 (read off the curve) is the concentration that produces a half-maximal response. Higher therefore signals a need for much substance.

T1 sequence (P55899 24-297 limits assumed, chain 1 of 2): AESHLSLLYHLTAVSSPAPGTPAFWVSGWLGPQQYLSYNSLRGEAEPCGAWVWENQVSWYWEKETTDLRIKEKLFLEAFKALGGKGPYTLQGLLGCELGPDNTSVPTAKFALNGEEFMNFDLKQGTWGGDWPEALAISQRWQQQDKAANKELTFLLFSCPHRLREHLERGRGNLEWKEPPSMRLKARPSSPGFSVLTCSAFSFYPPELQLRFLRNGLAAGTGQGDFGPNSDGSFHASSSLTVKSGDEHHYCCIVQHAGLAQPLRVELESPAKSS
T1 sequence (P61769 21-119 limits assumed, chain 2 of 2): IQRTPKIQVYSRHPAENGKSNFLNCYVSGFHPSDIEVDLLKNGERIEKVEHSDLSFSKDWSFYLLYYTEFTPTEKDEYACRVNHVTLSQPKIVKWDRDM

B1: wild-type CH3 domain (other)
chain: PREPQVYTLPPSRDELTKNQVSLTCLVKGFYPSDIAVEWESNGQPENNYKTTPPVLDSDGSFFLYSKLTVDKSRWQQGNVFSCSVMHEALHNHYTQKSLSLSPGK
notes: also called isolated CH3; Fc CH3 domain
B1: the binding result in test [1] was “no binding”.

B2: monomeric CH3 domain (mCH3) (designed binder)
chain: B1 chain with L9S, T24R, L26H, P53K
B2 registered a Kd in test [2] of 940 nM.

B3: mCH3 343C/431C mutant (mCH3cc) (designed binder)
chain: B1 chain with P1C, L9S, T24R, L26H, P53K, A89C
modifications: additional disulfide bond between Cys343 and Cys431
notes: also called engineered mCH3
For B3, the affinity in test [3], expressed as Kd, was 1080 nM.

B4: mFc.1 (designed binder)
chain: APELLGGPSVFLFPPKPKDTLMISRTPEVTCVVVDVSHEDPEVKFNWYVDGVEVHNAKTKPREEQYNSTYRVVSVLTVLHQDWLNGKEYKCKVSNKALPAPIEKTISKAKGQPREPQVYTYPPSRDELTKNQVSLYCAVKGFYPSDIAVEWESNGQPENNYKTTRPVLDSDGSFRLMSALTVDKSRWQQGNVFSCSVMHEALHNHYTQKSLSLSPGK
notes: also called monomeric Fc mFc.1
B4 yielded a Kd in test [4] of 204 nM. In addition, in test [5], the “EC50 (read off the curve)” value is approximately 100 nM.

B5: mFc.67 (designed binder)
chain: B4 chain with Y121K, Y136S, A138L, R165V, M177A, A179Y
notes: also called monomeric Fc mFc.67; mFc.67 monomer
For B5, the Kd in test [4] was 111 nM.

B6: mFc.23 (designed binder)
chain: B4 chain with Y121S, Y136R, A138H, R165K, R175E, M177K
notes: also called monomeric Fc mFc.23
Regarding B6, in test [4], the Kd is 59 nM. Also, the “EC50 (read off the curve)” value in test [5] was approximately 60 nM.
